{
  "source": "patent US20250376533A1",
  "key": {"[1]": {"molecular_target": "cynomolgus PD-L1 antigen (ACROBiosystems) (cynomolgus) (UniProt G7PSE7)", "sequence (G7PSE7 entry or part of it)": "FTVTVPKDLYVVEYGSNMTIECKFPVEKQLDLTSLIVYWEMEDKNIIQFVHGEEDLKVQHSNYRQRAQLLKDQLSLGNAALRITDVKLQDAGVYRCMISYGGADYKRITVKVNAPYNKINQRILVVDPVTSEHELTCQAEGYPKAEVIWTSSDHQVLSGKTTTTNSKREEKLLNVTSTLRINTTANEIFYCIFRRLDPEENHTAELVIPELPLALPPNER", "assay": "ELISA, coated antigen"}, "[2]": {"molecular_target": "human PD-L1 antigen (ACROBiosystems) (human) (UniProt Q9NZQ7)", "sequence (Q9NZQ7 19-238 limits assumed)": "as the sequence (G7PSE7 entry or part of it) above, with T33A, S34A, N62S, Q68R, R82Q, L173F, A185T, I192T, L215H counted along it", "assay": "ELISA, coated antigen"}, "[3]": {"molecular_target": "human PD-L1 antigen (ACROBiosystems) (human) (UniProt Q9NZQ7)", "assay": "ELISA, coated antigen", "remark": "listed apart in the source"}, "[4]": {"molecular_target": "human PD-L1 antigen (ACROBiosystems) (human) (UniProt Q9NZQ7)", "assay": "BLI (Gator), antibody captured on PA probe, human PD-L1 in solution"}, "[5]": {"molecular_target": "cynomolgus CD40 antigen (ACROBiosystems) (cynomolgus) (UniProt G7PG38)", "sequence (G7PG38 entry or part of it)": "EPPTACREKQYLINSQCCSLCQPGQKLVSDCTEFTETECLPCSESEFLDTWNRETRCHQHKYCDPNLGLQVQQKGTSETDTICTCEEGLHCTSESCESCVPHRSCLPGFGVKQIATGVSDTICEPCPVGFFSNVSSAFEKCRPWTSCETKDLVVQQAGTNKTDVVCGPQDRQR", "assay": "ELISA, coated antigen"}, "[6]": {"molecular_target": "human CD40 antigen (ACROBiosystems) (human) (UniProt P25942)", "sequence (P25942 21-193 limits assumed)": "as the sequence (G7PG38 entry or part of it) above, with S43G, R56H, Q70R, L89W, S95A, P101L, L106S, R142H, Q172L counted along it", "assay": "ELISA, coated antigen"}, "[7]": {"molecular_target": "cynomolgus CD40 antigen (ACROBiosystems) (cynomolgus) (UniProt G7PG38)", "assay": "ELISA, coated antigen", "remark": "listed apart in the source"}, "[8]": {"molecular_target": "human CD40 antigen (ACROBiosystems) (human) (UniProt P25942)", "assay": "ELISA, coated antigen", "remark": "listed apart in the source"}, "[9]": {"molecular_target": "CD40 on HEK-Blue CD40L cells (InvivoGen) (UniProt P25942)", "sequence (P25942 21-277 limits assumed)": "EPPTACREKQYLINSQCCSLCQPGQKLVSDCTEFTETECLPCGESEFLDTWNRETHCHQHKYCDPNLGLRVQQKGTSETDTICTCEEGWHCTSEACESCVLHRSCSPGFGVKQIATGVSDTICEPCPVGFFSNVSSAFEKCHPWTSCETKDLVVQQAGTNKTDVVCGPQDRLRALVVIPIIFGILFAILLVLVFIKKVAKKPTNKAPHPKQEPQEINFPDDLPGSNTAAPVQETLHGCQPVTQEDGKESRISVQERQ", "assay": "cell-based or functional assay"}},
  "note": "Read-outs that look alike come from different tables or passages of the source.",
  "data": [
    {"substance": "control PD-L1 monoclonal antibody Durvalumab (IMGT database ID 10010)", "values": [
      {"measurement": "EC50", "setting": "[1]", "value": 0.017, "unit": "nM"},
      {"measurement": "EC50", "setting": "[2]", "value": 0.014, "unit": "nM"},
      {"measurement": "EC50", "setting": "[3]", "value": 0.012, "unit": "nM"},
      {"measurement": "koff", "setting": "[4]", "value": 0.00265, "unit": "s⁻¹"}
    ]},
    {"substance": "control CD40 monoclonal antibody CP-870893 (IMGT database ID 10523)", "values": [
      {"measurement": "EC50", "setting": "[5]", "value": 0.018, "unit": "nM"},
      {"measurement": "EC50", "setting": "[6]", "value": 0.018, "unit": "nM"},
      {"measurement": "EC50", "setting": "[7]", "value": 0.016, "unit": "nM"},
      {"measurement": "EC50", "setting": "[8]", "value": 0.016, "unit": "nM"},
      {"measurement": "CD40 agonistic activity (A)/(B) Ratio, EC50 without over with CHO/PD-L1", "setting": "[9]", "value": 0.9},
      {"measurement": "CD40 agonistic activity EC50 (nM) with CHO/PD-L1 (B), SEAP reporter", "setting": "[9]", "value": 0.123, "unit": "nM"},
      {"measurement": "CD40 agonistic activity EC50 (nM) without CHO/PD-L1 (A), SEAP reporter", "setting": "[9]", "value": 0.109, "unit": "nM"}
    ]}
  ]
}
